Target: His-tagged recombinant human LDLR (extracellular domain, hLDLR-ECD) (human) (UniProt P01130)
Test: SPR

Chain of UniProt P01130 (P01130 22-788): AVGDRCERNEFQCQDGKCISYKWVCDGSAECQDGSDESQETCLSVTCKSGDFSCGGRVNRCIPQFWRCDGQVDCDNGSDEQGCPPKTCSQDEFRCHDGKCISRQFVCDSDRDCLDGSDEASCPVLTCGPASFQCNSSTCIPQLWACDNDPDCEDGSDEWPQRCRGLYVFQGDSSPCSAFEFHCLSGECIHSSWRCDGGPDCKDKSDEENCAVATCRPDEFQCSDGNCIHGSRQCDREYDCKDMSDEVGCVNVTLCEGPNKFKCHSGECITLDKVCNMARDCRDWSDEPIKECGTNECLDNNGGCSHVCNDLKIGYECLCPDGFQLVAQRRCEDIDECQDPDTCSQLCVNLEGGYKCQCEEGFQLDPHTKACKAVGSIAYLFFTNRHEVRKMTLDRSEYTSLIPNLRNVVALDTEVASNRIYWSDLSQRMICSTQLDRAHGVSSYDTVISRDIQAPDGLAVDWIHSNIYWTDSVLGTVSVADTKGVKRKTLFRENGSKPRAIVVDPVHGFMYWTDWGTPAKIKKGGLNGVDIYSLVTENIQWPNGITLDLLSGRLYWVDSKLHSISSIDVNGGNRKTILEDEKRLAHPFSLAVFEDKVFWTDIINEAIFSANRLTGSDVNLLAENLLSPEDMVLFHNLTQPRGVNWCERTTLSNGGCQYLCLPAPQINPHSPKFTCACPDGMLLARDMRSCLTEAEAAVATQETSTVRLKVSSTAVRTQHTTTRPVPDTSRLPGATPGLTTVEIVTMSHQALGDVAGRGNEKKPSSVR

Kd: 40.1 nM
Substance: VH4127 peptide (cyclo[(D)-Cys-Met-Thz-Arg-Leu-Arg-Gly-Pen])
